Measured values from paper PMC5715344, “Structural enzymology comparisons of multifunctional enzyme, type‐1 (MFE1): the flexibility of its dehydrogenase part” (FEBS Open Bio, 2017).

How the values were obtained:
Test in all cases: purified protein
Format in all cases: biochemical, Rattus norvegicus
purified protein [1] = substrate: C/C=C/C(=O)SCCNC(=O)CCNC(=O)[C@H](O)C(C)(C)COP(=O)(O)OP(=O)(O)OC[C@H]1O[C@@H](n2cnc3c(N)ncnc32)[C@H](O)[C@@H]1OP(=O)(O)O; settings: 50 mM Tris pH 9.0, 50 mM KCl, BSA, 25 °C, hydratase site
purified protein [2] = substrate: CC(=O)CC(=O)SCCNC(=O)CCNC(=O)[C@H](O)C(C)(C)COP(=O)(O)OP(=O)(O)OC[C@H]1O[C@@H](n2cnc3c(N)ncnc32)[C@H](O)[C@@H]1OP(=O)(O)O; settings: 0.1 mM NADH, 50 mM Tris/HCl pH 7.0, 50 mM KCl, BSA, 25 °C, dehydrogenase site
purified protein [3] = substrate: C[C@H](O)CC(=O)SCCNC(=O)CCNC(=O)[C@H](O)C(C)(C)COP(=O)(O)OP(=O)(O)OC[C@H]1O[C@@H](n2cnc3c(N)ncnc32)[C@H](O)[C@@H]1OP(=O)(O)O; settings: 1 mM NAD+, 50 mM Tris pH 9.0, 50 mM KCl, BSA, 25 °C, dehydrogenase site, substrate generated in situ from 2E-butenoyl-CoA by the enzyme's own hydratase site

B1: rat peroxisomal multifunctional enzyme, type-1 (rpMFE1) (Rattus norvegicus) (protein)
chain: MAEYLRLPHSLAMIRLCNPPVNAVSPTVIREVRNGLQKAGSDHTVKAIVICGANGNFCAGADIHGFSAFTPGLALGSLVDEIQRYQKPVLAAIQGVALGGGLELALGCHYRIANAKARVGLPEVTLGILPGARGTQLLPRVVGVPVALDLITSGKYLSADEALRLGILDAVVKSDPVEEAIKFAQKIIDKPIEPRRIFNKPVPSLPNMDSVFAEAIAKVRKQYPGVLAPETCVRSIQASVKHPYEVGIKEEEKLFMYLRASGQAKALQYAFFAEKSANKWSTPSGASWKTASAQPVSSVGVLGLGTMGRGIAISFARVGISVVAVESDPKQLDAAKKIITFTLEKEASRAHQNGQASAKPKLRFSSSTKELSTVDLVVEAVFEDMNLKKKVFAELSALCKPGAFLCTNTSALNVDDIASSTDRPQLVIGTHFFSPAHVMRLLEVIPSRYSSPTTIATVMSLSKKIGKIGVVVGNCYGFVGNRMLAPYYNQGFFLLEEGSKPEDVDGVLEEFGFKMGPFRVSDLAGLDVGWKIRKGQGLTGPSLPPGTPVRKRGNSRYSPLGDMLCEAGRFGQKTGKGWYQYDKPLGRIHKPDPWLSTFLSQYREVHHIEQRTISKEEILERCLYSLINEAFRILEEGMAARPEHIDVIYLHGYGWPRHKGGPMFYAASVGLPTVLEKLQKYYRQNPDIPQLEPSDYLRRLVAQGSPPLKEWQSLAGPHGSKL
notes: full length, 722 residues, pET15b recombinant; crystal model of molecule A starts at residue -4 (N-terminal vector/tag residues present); monomer
Work on B1 yielded a Km (purified protein [1]) of 82.0 ± 18.0 µM, a kcat (purified protein [1]) of 113 ± 33 s⁻¹ and a kcat/Km (purified protein [1]) of 1.4e+06 M⁻¹ s⁻¹. It also gave a Km (purified protein [2]) of 44.0 ± 15.0 µM, a kcat (purified protein [2]) of 23 ± 2.3 s⁻¹ and a kcat/Km (purified protein [2]) of 500000 M⁻¹ s⁻¹. It also gave a Km (purified protein [3]) of 3.6 ± 1.0 µM, a kcat (purified protein [3]) of 1.7 ± 0.1 s⁻¹ and a kcat/Km (purified protein [3]) of 500000 M⁻¹ s⁻¹.
